The RNAGym collection of RNA variant scans (doi:10.1073/pnas.2313332121)

B1: TPR t1 (parent)
chain: GACCAAUCUGCCCUCAGAGCUCGAGAACAUCUUCGGAUGCAGAGGAGGCAGGCUUCGGUGGCGCGAUAGCGCCAACGUCCUCAACCUCCAAUGCAUCCCACCACAUGAUGAUGCCUGAAGAGCCUUGGUUUUUUG

Variants of: B1
Assay: polymerase ribozyme fitness, log enrichment relative to wild type (log ratio); higher = more active; in vitro selection for triplet polymerase activity
Procedure, shortened: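 Frozen incubation at −7 °C formed the core of a single, triplicate in vitro selection round applied to PCR-built, transcribed mutant libraries of each subunit of a heterodimeric triplet polymerase ribozyme. Extended constructs were gel-excised, captured with streptavidin beads and amplified by RT-PCR, and input and output libraries were Illumina-sequenced with a filter of ≥10 input reads and ≥1 read per output. Fitness is the logarithm of genotype enrichment relative to wild-type enrichment, with inverse-variance-weighted replicate averaging, and the logarithm is base 2.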

Going from GACCAAUCUGCCCUCAGAGCUCGAGAACAUCUUCGGAUGCAGAGGAGGCAGUCGUCGGUGGCGCGAUAGCGCCAACGUCCUCAACCUCCAAUGCAUCCCACCACAUGAUGAUGCCUGAAGAGCCUUGGUUUUUUG [G52U U54G] to GACCAAUCUGCCCUCAGAGCUCGAGAACAUCUUCGGAUGCAGAGGAGGCAGUCUUCGGUGGCGCGAUAGUGCCAACGUCCUCAACCUCCAAUGCAUCCCACCACAUGAUGAUUCCUGAAGAGCCUUGGUUUUUUG [G52U C70U G113U], the “polymerase ribozyme fitness (log ratio)” value falls from -1.03 to -5.82.

First: GACCAAUCUGCCCUCAGAGCUCGAGAACAUCUUCGGAUGCAGAGGAGGCAGUCUUCGGUGGCGCGAUAGCGCUAACGUCCUCAACCUCCAAUGCAUCCCACCAGAUGAUGAUGCAUGAAGAGCCUUGGUUUUUUG [G52U C73U C104G C115A]
Second: GACCAAUCUGCCCUCAGAGCUCGAGAACAUCUUCGGAUGCAGAGGAGGCAGUCUUCGGUGCCGCGAUAGCGCCAACGUCCUCAACCUCCAAUGCAUCCCACCACAUGAUGAUGCCUGAAGAGCCUUGGUUUUUUG [G52U G61C]
The “polymerase ribozyme fitness (log ratio)” value of the first is lower: -6.56 for the first, 0.0885 for the second.

Compared with GACCAAUCUGCCCUCAGAGCUCGAGAACAUCUUCGGAUGCAGAGGAGGCAGUCUUCGGCGGCGCGAUAGCGCCAACGUCCUCAAUCUCCAAUGCAUCCCACCACAUGAUGAUGCCUGAAGAGCUUUGGUUUUUUG [G52U U59C C85U C124U], GACCAAUCUGCCCUCAGAGCUCGAGAACAUCUUCGGAUGCAGAGGAGGCAGUCUUCGGUGGCGUGAUAGCGCCAACGUCCUCAACCUCCAAUGCAUCCCACCACAUGAUGAUGCCUGAAGAGCCUUGGUUUUUUG [G52U C64U] is higher in “polymerase ribozyme fitness (log ratio)” value: -1.1 for the first, -0.768 for the second.

First: GACCAAUCUGCCCUCAGAGCUCGAGAACAUCUUCGGAUGCAGAGGAGGCAGUCUUCGGUGGCGCGAUAGCGCCAACGUCCUCAACCUCCAAUGCAUCCCACCACAUGAUGAUGCCUGAAUAGCCUUGGUUUUUUG [G52U G120U]
Second: GACCAAUCUGCCCUCAGAGCUCGAGAACAUCUUCGGAUGCAGAGGAGGCAGUCUUCGGUGGCCCGAUAGCGCCAACGUCCUCAACCUCCAAAGCAUCCCACCACAUGAUGAUGCCUGAAGAGCCUUGGUUUUUUG [G52U G63C U92A]
The “polymerase ribozyme fitness (log ratio)” value of the first is higher: -0.714 for the first, -4.96 for the second.

Going from GACCAAUCUGCCCUCAGAGCUCGAGAACAUCUUCGGAUGCAGAGGAGGCAGUCUUCGGUGGCACGAUAGCGCCAACGUCCUCAACCUCCAAUACAUCCCACCACAUGAUGAUGCCUGAAGAGCCUUGGUUUUUUG [G52U G63A G93A] to GACCAAUCUGCCCUCAGAGCUCGAGAACAUCUUCGGAUGCAGAGGAGGCAGUCUUCGGUGGCGCGAUAGCGUCAACGUCCUCAACCUCCAAUGCAUCCCACCACAUGAUGAUGCCUGAAGAGCCUUGGUUUUUUG [G52U C72U], the “polymerase ribozyme fitness (log ratio)” value rises from -1.45 to -0.747.

First: GACCAAUCUGCCCUCAGAGCUCGAGAACAUCUUCGGAUGCAGAGGAGGCAGUCUUCGGUGGCGCGAUAGCUCCAACGUCCUCAACCUCCAAUGCAUCCCACCACAUGAUGAUGCCUGAAGAGCCUUGGUUUUUUG [G52U G71U]
Second: GACCAAUCUGCCCUCAGAGCUCGAGAACAUCUUCGGAUGCAGAGGAGGCAGUCUUCGGUGACGCGAUAGCGCCAACGUCCUCAACCUCCAAUGCAUCCCACCACAUGAUUAUGCCUGAAGAGCCUUGGUUUUUUG [G52U G61A G110U]
The “polymerase ribozyme fitness (log ratio)” value of the first is higher: -0.703 for the first, -2 for the second.

Compared with GACCAAUCUGCCCUCAGAGCUCGAGAACAUCUUCGGAUGCAGAGGAGGCAGUCUUCGGUGGCACGAUAGCGCCAACGUCCUCAACCUCCAAUGCAUCCCACCACAUGAUGAUGCCUGAAGAGCCUUGGUUUUUUG [G52U G63A], GACCAAUCUGCCCUCAGAGCUCGAGAACAUCUUCGGAUGCAGAGGAGGCAGUCUUCGGUGGCCCGAUAGCGCCAACGUCCUCAACCUCCAAUGCAUCCCACCACAUGAUGAUGCCUGAAGAGCCUUGGUUUUUUG [G52U G63C] is higher in “polymerase ribozyme fitness (log ratio)” value: -1.95 for the first, -0.581 for the second.

Compared with GACCAAUCUGCCCUCAGAGCUCGAGAACAUCUUCGGAUGCAGAGGAGGCAGUCUUCGGUGGCGCGAUAGCGCCAACGUACUCAACCUCCAAUGCAUCCCACCACAUGAUGAUGCCUGAAGAGCCUUGGUUUUUUG [G52U C79A], GACCAAUCUGCCCUCAGAGCUCGAGAACAUCUUCGGAUGCAGAGGAGGCAGUCGUCGGUGGCGCGAUACCGCCAACGUCCUCAACCUCCAAUGCAUCCCACCACAUGAUGAUGCCUGAAGAGCCUUGGUUUUUUG [G52U U54G G69C] is lower in “polymerase ribozyme fitness (log ratio)” value: -1.05 for the first, -4.27 for the second.

Going from GACCAAUCUGCCCUCAGAGCUCGAGAACAUCUUCGGAUGCAGAGGAGGCAGUCUUCGGUGGCGCGAUAGCGCCAACGUCCUCAACCUCCAAUGCAUCCCACCACAUGAUGAUGCAUGAAGAGCCUUGGUUUUUUG [G52U C115A] to GACCAAUCUGCCCUCAGAGCUCGAGAACAUCUUCGGAUGCAGAGGAGGCAGUCUUCGGUGUCGCGAUAGCGCCAACGUCCUCAACCUCCAAUGCAUCCCACCACAUGAUGAUGCCUGGAGAGCCUUGGAUUUUUG [G52U G61U A118G U129A], the “polymerase ribozyme fitness (log ratio)” value falls from -0.782 to -1.85.

Compared with GACCAAUCUGCCCUCAGAGCUCGAGAACAUCUUCGGAUGCAGAGGAGGCAGUCUUCGGUGGCGCGAUAGCGCCAACGUCCUCAACCUCCAAUGCAUCCCACCACAUGAUAAUGCCUGAAGAGCCUUGGUUUUUUG [G52U G110A], GACCAAUCUGCCCUCAGAGCUCGAGAACAUCUUCGGAUGCAGAGGAGGCAGUCUUCGGUGGCGCGAUAGCGUCAACGCCCUCAACCUCCAAUGCAUCCCACCACAUGAUGAUGCCUGAAGAGCCUUGGUUUUUUG [G52U C72U U78C] is higher in “polymerase ribozyme fitness (log ratio)” value: -1.73 for the first, -0.804 for the second.

For GACCAAUCUGCCCUCAGAGCUCGAGAACAUCUUCGGAUGCAGAGGAGGCAGUCUUCGGUGGCGCGAUAGCGACAACGUCCUCAACAUCCAAUGCAUCCCACCACAUGAUGAUACCUGAAGACCCUUGGUUUUUUG [G52U C72A C86A G113A G122C], the “polymerase ribozyme fitness (log ratio)” value was -4.85.
